Measurements: PMC9176643 (bioRxiv, 2022)

Target: SARS-CoV Urbani RBD (SARS-CoV Urbani, UniProt P59594)
Assay: ELISA

B1: S2X324 mAb (antibody, V domains shown)
VH: QITLKESGPTLVKPTQTLTLTCTFSGFSVTTSGVGVGWIRQPPGKALEYLALIYWDDDKRYSTSLKSRLTITKDTSKNQVVLTMTNMDPVDTATYYCARHTIPSIFDYWGQGILVTVSS
VL: QPVLTQPASVSGSPGQSITISCTATSSDVGNYNYVSWYQHHPGKAPKLMIYEVSNRPSGVSNRFSGSKSGNTASLTISGLQAEDEADYYCSSYTSSSLLFGGGTKLTVL
Question: Does B1 bind?
Answer: Result: no binding
